Experimental data from PMC10397247.

Tests used:
4H2859-bN = target: T1, 4H2859-bN; assay: two-hybrid library CCNG1;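 further: natural log of median RNA to DNA barcode read ratio; higher means stronger binding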
T1 chain: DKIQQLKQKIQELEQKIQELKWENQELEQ

4H2931-bN = target: T2, 4H2931-bN; assay: two-hybrid library CCNG1;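 further: natural log of median RNA to DNA barcode read ratio; higher means stronger binding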
T2 chain: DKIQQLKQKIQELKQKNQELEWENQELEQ

4H3041-bN = target: T3, 4H3041-bN; assay: two-hybrid library CCNG1;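 further: natural log of median RNA to DNA barcode read ratio; higher means stronger binding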
T3 chain: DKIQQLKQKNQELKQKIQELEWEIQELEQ

4H3297-bN = target: T4, 4H3297-bN; assay: two-hybrid library CCNG1;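 further: natural log of median RNA to DNA barcode read ratio; higher means stronger binding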
T4 chain: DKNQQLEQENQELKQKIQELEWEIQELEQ

4H3364-bN = target: T5, 4H3364-bN; assay: two-hybrid library CCNG1
T5 chain: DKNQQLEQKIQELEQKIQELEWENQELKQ

4H3381-bN = target: T6, 4H3381-bN; assay: two-hybrid library CCNG1
T6 chain: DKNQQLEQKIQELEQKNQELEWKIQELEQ

4H349-bN = target: T7, 4H349-bN; assay: two-hybrid library CCNG1
T7 chain: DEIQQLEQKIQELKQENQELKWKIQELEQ

4H56-bN = target: T8, 4H56-bN; assay: two-hybrid library CCNG1
T8 chain: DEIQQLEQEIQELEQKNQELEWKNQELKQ

4H730-bN = target: T9, 4H730-bN; assay: two-hybrid library CCNG1
T9 chain: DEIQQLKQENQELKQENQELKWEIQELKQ

4H796-bN = target: T10, 4H796-bN; assay: two-hybrid library CCNG1
T10 chain: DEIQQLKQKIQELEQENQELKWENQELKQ

4H932-bN = target: T11, 4H932-bN; assay: two-hybrid library CCNG1
T11 chain: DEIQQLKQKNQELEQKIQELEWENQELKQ

4H949-bN = target: T12, 4H949-bN; assay: two-hybrid library CCNG1
T12 chain: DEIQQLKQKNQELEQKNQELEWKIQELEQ

O11-bH = target: T13, O11-bH; assay: two-hybrid library CCNG1
T13 chain: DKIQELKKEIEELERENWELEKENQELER

P12A-bP = target: T14, P12A-bP; assay: two-hybrid library CCNG1
T14 chain: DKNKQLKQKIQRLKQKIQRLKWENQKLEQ

P1A-bP = target: T15, P1A-bP; assay: two-hybrid library CCNG1
T15 chain: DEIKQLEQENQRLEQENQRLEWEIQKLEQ

P2A-bP = target: T16, P2A-bP; assay: two-hybrid library CCNG1
T16 chain: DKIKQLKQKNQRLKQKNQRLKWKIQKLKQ

P3A-bP = target: T17, P3A-bP; assay: two-hybrid library CCNG1
T17 chain: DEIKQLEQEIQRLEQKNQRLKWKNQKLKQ

P4A-bP = target: T18, P4A-bP; assay: two-hybrid library CCNG1
T18 chain: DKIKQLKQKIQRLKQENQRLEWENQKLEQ

P5A-bP = target: T19, P5A-bP; assay: two-hybrid library CCNG1
T19 chain: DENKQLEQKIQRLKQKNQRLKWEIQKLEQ

P6A-bP = target: T20, P6A-bP; assay: two-hybrid library CCNG1
T20 chain: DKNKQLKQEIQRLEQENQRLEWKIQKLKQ

P7A-bP = target: T21, P7A-bP; assay: two-hybrid library CCNG1
T21 chain: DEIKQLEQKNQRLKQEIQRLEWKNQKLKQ

P8A-bP = target: T22, P8A-bP; assay: two-hybrid library CCNG1
T22 chain: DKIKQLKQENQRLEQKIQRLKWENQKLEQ

P9A-bP = target: T23, P9A-bP; assay: two-hybrid library CCNG1
T23 chain: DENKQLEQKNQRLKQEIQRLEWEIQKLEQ

4H1710-AA = target: T24, 4H1710-AA; assay: two-hybrid library CCmax
T24 chain: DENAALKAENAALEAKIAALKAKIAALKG

4H1985-AA = target: T25, 4H1985-AA; assay: two-hybrid library CCmax; details: mean of both orientations
T25 chain: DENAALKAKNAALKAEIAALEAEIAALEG

4H2187-AA = target: T26, 4H2187-AA; assay: two-hybrid library CCmax
T26 chain: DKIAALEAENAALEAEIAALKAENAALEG

4H233-AA = target: T27, 4H233-AA; assay: two-hybrid library CCmax; details: mean of both orientations
T27 chain: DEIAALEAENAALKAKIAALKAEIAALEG

4H2512-AA = target: T28, 4H2512-AA; assay: two-hybrid library CCmax; details: mean of both orientations
T28 chain: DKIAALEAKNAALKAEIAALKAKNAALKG

4H2646-AA = target: T29, 4H2646-AA; assay: two-hybrid library CCmax; details: mean of both orientations
T29 chain: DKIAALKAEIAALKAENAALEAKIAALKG

4H2687-AA = target: T30, 4H2687-AA; assay: two-hybrid library CCmax; details: mean of both orientations
T30 chain: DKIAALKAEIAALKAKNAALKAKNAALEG

4H2705-AA = target: T31, 4H2705-AA; assay: two-hybrid library CCmax; details: mean of both orientations
T31 chain: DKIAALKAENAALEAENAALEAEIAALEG

4H2758-AA = target: T32, 4H2758-AA; assay: two-hybrid library CCmax; details: mean of both orientations
T32 chain: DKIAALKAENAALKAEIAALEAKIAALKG

4H278-AA = target: T33, 4H278-AA; assay: two-hybrid library CCmax; details: mean of both orientations
T33 chain: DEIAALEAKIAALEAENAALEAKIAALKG

4H2873-AA = target: T34, 4H2873-AA; assay: two-hybrid library CCmax; details: mean of both orientations
T34 chain: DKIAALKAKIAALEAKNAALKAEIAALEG

4H2985-AA = target: T35, 4H2985-AA; assay: two-hybrid library CCmax; details: mean of both orientations
T35 chain: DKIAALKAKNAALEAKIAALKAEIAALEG

4H3134-AA = target: T36, 4H3134-AA; assay: two-hybrid library CCmax; details: mean of both orientations
T36 chain: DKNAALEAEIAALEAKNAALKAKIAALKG

4H3409-AA = target: T37, 4H3409-AA; assay: two-hybrid library CCmax; details: mean of both orientations
T37 chain: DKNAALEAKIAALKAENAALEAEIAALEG

4H3625-AA = target: T38, 4H3625-AA; assay: two-hybrid library CCmax; details: mean of both orientations
T38 chain: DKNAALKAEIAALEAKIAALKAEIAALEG

4H390-AA = target: T39, 4H390-AA; assay: two-hybrid library CCmax; details: mean of both orientations
T39 chain: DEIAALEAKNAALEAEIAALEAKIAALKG

4H3940-AA = target: T40, 4H3940-AA; assay: two-hybrid library CCmax; details: mean of both orientations
T40 chain: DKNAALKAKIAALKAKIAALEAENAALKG

4H510-AA = target: T41, 4H510-AA; assay: two-hybrid library CCmax; details: mean of both orientations
T41 chain: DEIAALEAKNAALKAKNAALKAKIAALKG

4H775-AA = target: T42, 4H775-AA; assay: two-hybrid library CCmax; details: mean of both orientations
T42 chain: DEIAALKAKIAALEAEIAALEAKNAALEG

4H816-AA = target: T43, 4H816-AA; assay: two-hybrid library CCmax; details: mean of both orientations
T43 chain: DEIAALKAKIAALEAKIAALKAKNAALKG

4H87-AA = target: T44, 4H87-AA; assay: two-hybrid library CCmax; details: mean of both orientations
T44 chain: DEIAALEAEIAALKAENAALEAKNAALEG

4H2253-bH = target: T45, 4H2253-bH; assay: two-hybrid library CCNG1
T45 chain: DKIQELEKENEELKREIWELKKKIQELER

4H235-bH = target: T46, 4H235-bH; assay: two-hybrid library CCNG1
T46 chain: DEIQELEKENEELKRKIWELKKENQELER

4H2444-bH = target: T47, 4H2444-bH; assay: two-hybrid library CCNG1
T47 chain: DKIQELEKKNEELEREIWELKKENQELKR

4H2518-bH = target: T48, 4H2518-bH; assay: two-hybrid library CCNG1
T48 chain: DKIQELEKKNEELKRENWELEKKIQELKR

4H2585-bH = target: T49, 4H2585-bH; assay: two-hybrid library CCNG1
T49 chain: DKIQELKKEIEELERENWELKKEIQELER

4H264-bH = target: T50, 4H264-bH; assay: two-hybrid library CCNG1
T50 chain: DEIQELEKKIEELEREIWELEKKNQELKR

4H2760-bH = target: T51, 4H2760-bH; assay: two-hybrid library CCNG1
T51 chain: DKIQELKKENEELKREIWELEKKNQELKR

4H2859-bH = target: T52, 4H2859-bH; assay: two-hybrid library CCNG1
T52 chain: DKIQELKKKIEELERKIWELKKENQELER

4H2931-bH = target: T53, 4H2931-bH; assay: two-hybrid library CCNG1
T53 chain: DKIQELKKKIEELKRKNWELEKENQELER

4H3041-bH = target: T54, 4H3041-bH; assay: two-hybrid library CCNG1
T54 chain: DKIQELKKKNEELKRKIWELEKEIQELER

4H3297-bH = target: T55, 4H3297-bH; assay: two-hybrid library CCNG1
T55 chain: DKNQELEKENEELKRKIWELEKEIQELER

4H3364-bH = target: T56, 4H3364-bH; assay: two-hybrid library CCNG1
T56 chain: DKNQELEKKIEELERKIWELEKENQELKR

4H3381-bH = target: T57, 4H3381-bH; assay: two-hybrid library CCNG1
T57 chain: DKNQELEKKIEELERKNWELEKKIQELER

4H349-bH = target: T58, 4H349-bH; assay: two-hybrid library CCNG1
T58 chain: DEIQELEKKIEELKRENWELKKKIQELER

4H56-bH = target: T59, 4H56-bH; assay: two-hybrid library CCNG1
T59 chain: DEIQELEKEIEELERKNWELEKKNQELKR

4H730-bH = target: T60, 4H730-bH; assay: two-hybrid library CCNG1
T60 chain: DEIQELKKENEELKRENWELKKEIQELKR

4H796-bH = target: T61, 4H796-bH; assay: two-hybrid library CCNG1
T61 chain: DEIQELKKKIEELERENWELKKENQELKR

4H932-bH = target: T62, 4H932-bH; assay: two-hybrid library CCNG1
T62 chain: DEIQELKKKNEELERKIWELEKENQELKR

4H949-bH = target: T63, 4H949-bH; assay: two-hybrid library CCNG1
T63 chain: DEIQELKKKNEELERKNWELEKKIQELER

Binder: DKIQQLKQKIQELEQKIQELKWENQELEQ [4H2859-bN]
- interaction score (4H2859-bN): 0.927
- interaction score (4H2931-bN): -0.613
- interaction score (4H3041-bN): 0.995
- interaction score (4H3297-bN): 0.359
- interaction score (4H3364-bN): -0.713
- interaction score (4H3381-bN): -1.35
- interaction score (4H349-bN): -1.06
- interaction score (4H56-bN): 0.857
- interaction score (4H730-bN): -1.23
- interaction score (4H796-bN): -1.23
- interaction score (4H932-bN): -1.18
- interaction score (4H949-bN): -2.31
- interaction score (O11-bH): 0.17

Binder: DKNKQLKQKIQRLKQKIQRLKWENQKLEQ [P12A-bP]
- interaction score (P12A-bP): -1.39
- interaction score (P1A-bP): -0.938
- interaction score (P2A-bP): -1.47
- interaction score (P3A-bP): 1.06
- interaction score (P4A-bP): -1.3
- interaction score (P5A-bP): -1.95
- interaction score (P6A-bP): -1.09
- interaction score (P7A-bP): -1.24
- interaction score (P8A-bP): -1.36
- interaction score (P9A-bP): -0.693

Binder: DENAALKAENAALEAKIAALKAKIAALKG [4H1710-AA]
- interaction score (4H1710-AA): -0.109
- interaction score (4H1985-AA): 2.15
- interaction score (4H2187-AA): -0.907
- interaction score (4H233-AA): 1.63
- interaction score (4H2512-AA): -0.967
- interaction score (4H2646-AA): -1.37
- interaction score (4H2687-AA): -1.29
- interaction score (4H2705-AA): -0.626
- interaction score (4H2758-AA): 1.82
- interaction score (4H278-AA): -0.799
- interaction score (4H2873-AA): -0.937
- interaction score (4H2985-AA): 0.52
- interaction score (4H3134-AA): -0.882
- interaction score (4H3409-AA): -0.675
- interaction score (4H3625-AA): -0.181
- interaction score (4H390-AA): 1.21
- interaction score (4H3940-AA): -0.657
- interaction score (4H510-AA): -0.836
- interaction score (4H775-AA): -0.259
- interaction score (4H816-AA): -0.912
- interaction score (4H87-AA): -1.16

Binder: DKIQELEKENEELKREIWELKKKIQELER [4H2253-bH]
- interaction score (4H2253-bH): 0.888
- interaction score (4H235-bH): 0.172
- interaction score (4H2444-bH): -0.045
- interaction score (4H2518-bH): 0.157
- interaction score (4H2585-bH): -1.52
- interaction score (4H264-bH): 0.653
- interaction score (4H2760-bH): 0.899
- interaction score (4H2859-bH): 0.651
- interaction score (4H2931-bH): -0.195
- interaction score (4H3041-bH): 0.872
- interaction score (4H3297-bH): 0.617
- interaction score (4H3364-bH): 0.0509
- interaction score (4H3381-bH): 0.131
- interaction score (4H349-bH): -0.0717
- interaction score (4H56-bH): -2.53
- interaction score (4H730-bH): -0.37
- interaction score (4H796-bH): -0.124
- interaction score (4H932-bH): -0.937
- interaction score (4H949-bH): -0.427
- interaction score (P12A-bP): -0.712
- interaction score (P7A-bP): -1.72
